According to patent US20240092891A1 (SANYOU BIOPHARMACEUTICALS, published 2024):

Tests used:
human CLDN18.2 [1] = target: T1, human CLDN18.2 (human); experiment: flow cytometry on human CLDN18.2-HEK293T cells
T1 construct: also called CLD18A2; huCLDN18.2

human CLDN18.1 [2] = target: T2, human CLDN18.1 (human, UniProt P56856 1-261); experiment: flow cytometry, binding intensity on human CLDN18.1-HEK293 cells at different concentrations
T2 construct: Overexpressed on HEK293 cells; also called human CLDN18.1-HEK293
T2 sequence (P56856 whole entry): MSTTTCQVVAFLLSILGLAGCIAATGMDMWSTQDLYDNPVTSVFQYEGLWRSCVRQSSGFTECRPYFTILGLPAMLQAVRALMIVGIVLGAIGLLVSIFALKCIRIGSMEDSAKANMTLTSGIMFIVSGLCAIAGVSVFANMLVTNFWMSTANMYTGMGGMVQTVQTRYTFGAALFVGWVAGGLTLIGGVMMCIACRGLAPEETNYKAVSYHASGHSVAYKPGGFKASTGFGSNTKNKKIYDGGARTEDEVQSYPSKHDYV
Protocol: Therefore, antibodies (including a high concentration of 100 μg/mL) at different concentrations were used to be incubated with human CLDN18.1-HEK293 in vitro in this example. The method was as described in section 1.3.1, wherein antibodies at different concentrations were incubated with target cells human CLDN18.1-HEK293 at 4° C. for 1 h. Next, the resulting cultures were rinsed three times with the above-mentioned FACS buffer. 0.5 μg (0.5 mg/ml) of PE-labeled goat anti-human IgG Fc antibody (Abcam, ab98596) was added, and the resulting mixture was incubated at 4° C. for 1 h, and then rinsed three times with the FACS buffer.

human CLDN18.1 [3] = target: T2, human CLDN18.1; experiment: flow cytometry with phage supernatant, anti-M13 antibody, on human CLDN18.1-HEK293 cells
Description: Firstly, 1×10⁵ human CLDN18.2-HEK293T and human CLDN18.1-HEK293 cells were taken, respectively and centrifuged at a low speed of 500 g, and the supernatant was removed.

human CLDN18.2 [4] = target: T1, human CLDN18.2; experiment: cell-based or functional assay

B1: humanized antibody NA4-S-H7 (Fc fusion)
chain: EVQLVESGGGLVQPGGSLRLSCAASGSIFSINVMGWYRQAPGKQRELVAGISTGGTTRYADSVKGRFTISRDNAKNTLYLQMNSLRAEDTAVYYCNADLATATSWPVRYLEVWGQGTLVTVSS
notes: not shown: Fc part implied (detected with anti-human IgG Fc; parent molecule in CDC/ADCC)
EC50 (human CLDN18.2 [1]): 0.877 µg/mL
binding intensity (MFI) at the highest concentration (human CLDN18.2 [1]): 128000 MFI
binding result (human CLDN18.1 [2]): no binding (tested: 100 µg/mL)

B2: clone NA4-S, VHH displayed on phage (VHH)
VHH: EVQVVESGGGLVQPGGSLRLSCAASGSIFSINVMGWYRQAPGKQRELVAGISTGGTTRYADSAKGRFTISRDNAKNTVYLQMNSLKPEDTAVYYCNADLATATSWPVRYLEVWGQGTLVTVSA
notes: also called NA4-S (phage supernatant); candidate nanobody NA4-S
binding result (human CLDN18.1 [3]): no binding

B3: IMAB362 antibody (antibody, V domains shown)
VH: QVQLQQPGAELVRPGASVKLSCKASGYTFTSYWINWVKQRPGQGLEWIGNIYPSDSYTNYNQKFKDKATLTVDKSSSTAYMQLSSPTSEDSAVYYCTRSWRGNSFDYWGQGTTLTVSS
VL: DIVMTQSPSSLTVTAGEKVTMSCKSSQSLLNSGNQKNYLTWYQQKPGQPPKLLIYWASTRESGVPDRFTGSGSGTDFTLTISSVQAEDLAVYYCQNDYSYPFTFGSGTKLEIKR
EC50 of ADCC cell killing effect (LDH release, human PBMC) on human CLDN18.2-HEK293T cells, run with NA7-S (human CLDN18.2 [4]): 0.0862 nM
EC50 of ADCC cell killing effect (LDH release, human PBMC) on human CLDN18.2-HEK293T cells, run with NA8-S (human CLDN18.2 [4]): 0.0636 nM
EC50 of CDC cell killing effect (MTS) on human CLDN18.2-HEK293T cells, run with NA4-S (human CLDN18.2 [4]): 0.613 nM
EC50 of CDC cell killing effect (MTS) on human CLDN18.2-HEK293T cells, run with NA7-S (human CLDN18.2 [4]): 0.628 nM
EC50 of CDC cell killing effect (MTS) on human CLDN18.2-HEK293T cells, run with NA8-S (human CLDN18.2 [4]): 1.86 nM
EC50 of CDC cell killing effect (MTS) on human CLDN18.2-KATOIII tumor cells, run with NA7-S (human CLDN18.2 [4]): 69.8 nM
EC50 of CDC cell killing effect (MTS) on human CLDN18.2-KATOIII tumor cells, run with NA8-S (human CLDN18.2 [4]): 1860 nM
IC50 of Fab-ZAP cell killing (endocytosis, MTS) on CLDN18.2-HEK293T cells, run with NA7-S (human CLDN18.2 [4]): 0.128 nM
IC50 of Fab-ZAP cell killing (endocytosis, MTS) on CLDN18.2-HEK293T cells, run with NA8-S (human CLDN18.2 [4]): 0.136 nM

B4: clone NA7-S, VHH displayed on phage (VHH)
VHH: EVQVQESGGGLVQPGGSLRLSCAASGSFFRIVAMGWYRQAPGSQRELVATITRGGSTYYADSMKGRSTISRDNAKNTVYLQMNSLKPEDTAVYYCNVRVEVPFMQPNDYWGHGTQVTVSS
notes: also called NA7-S (phage supernatant); candidate nanobody NA7-S
binding result (human CLDN18.1 [3]): no binding

B5: humanized antibody NA7-S-H2 (Fc fusion)
chain: EVQLVESGGGLVQPGGSLRLSCAASGSFFRIVAMGWYRQAPGKGRELVATITRGGSTYYADSMKGRSTISRDNAKNTVYLQMNSLKPEDTAVYYCNVRVEVPFMQPNDYWGQGTLVTVSS
notes: as for B1
EC50 (human CLDN18.2 [1]): 0.482 µg/mL
binding intensity (MFI) at the highest concentration (human CLDN18.2 [1]): 184000 MFI
